Assay results from patent publication US20250075002A1 (BEIGENE SWITZERLAND, published 2025).

Legend:
[1] = molecular target: T1, Human MUC1 (full length), on cells (human, UniProt P15941 24-1255); test: flow cytometry on live ZR-75 cells (native MUC1)
T1 construct: UniProtKB P15941 printed; the cell line is named under assay; also called native MUC1; HEK293/human MUC1

[2] = molecular target: T1, Human MUC1 (full length), on cells; test: cell-based or functional assay

T1 sequence (P15941 24-1255 limits assumed): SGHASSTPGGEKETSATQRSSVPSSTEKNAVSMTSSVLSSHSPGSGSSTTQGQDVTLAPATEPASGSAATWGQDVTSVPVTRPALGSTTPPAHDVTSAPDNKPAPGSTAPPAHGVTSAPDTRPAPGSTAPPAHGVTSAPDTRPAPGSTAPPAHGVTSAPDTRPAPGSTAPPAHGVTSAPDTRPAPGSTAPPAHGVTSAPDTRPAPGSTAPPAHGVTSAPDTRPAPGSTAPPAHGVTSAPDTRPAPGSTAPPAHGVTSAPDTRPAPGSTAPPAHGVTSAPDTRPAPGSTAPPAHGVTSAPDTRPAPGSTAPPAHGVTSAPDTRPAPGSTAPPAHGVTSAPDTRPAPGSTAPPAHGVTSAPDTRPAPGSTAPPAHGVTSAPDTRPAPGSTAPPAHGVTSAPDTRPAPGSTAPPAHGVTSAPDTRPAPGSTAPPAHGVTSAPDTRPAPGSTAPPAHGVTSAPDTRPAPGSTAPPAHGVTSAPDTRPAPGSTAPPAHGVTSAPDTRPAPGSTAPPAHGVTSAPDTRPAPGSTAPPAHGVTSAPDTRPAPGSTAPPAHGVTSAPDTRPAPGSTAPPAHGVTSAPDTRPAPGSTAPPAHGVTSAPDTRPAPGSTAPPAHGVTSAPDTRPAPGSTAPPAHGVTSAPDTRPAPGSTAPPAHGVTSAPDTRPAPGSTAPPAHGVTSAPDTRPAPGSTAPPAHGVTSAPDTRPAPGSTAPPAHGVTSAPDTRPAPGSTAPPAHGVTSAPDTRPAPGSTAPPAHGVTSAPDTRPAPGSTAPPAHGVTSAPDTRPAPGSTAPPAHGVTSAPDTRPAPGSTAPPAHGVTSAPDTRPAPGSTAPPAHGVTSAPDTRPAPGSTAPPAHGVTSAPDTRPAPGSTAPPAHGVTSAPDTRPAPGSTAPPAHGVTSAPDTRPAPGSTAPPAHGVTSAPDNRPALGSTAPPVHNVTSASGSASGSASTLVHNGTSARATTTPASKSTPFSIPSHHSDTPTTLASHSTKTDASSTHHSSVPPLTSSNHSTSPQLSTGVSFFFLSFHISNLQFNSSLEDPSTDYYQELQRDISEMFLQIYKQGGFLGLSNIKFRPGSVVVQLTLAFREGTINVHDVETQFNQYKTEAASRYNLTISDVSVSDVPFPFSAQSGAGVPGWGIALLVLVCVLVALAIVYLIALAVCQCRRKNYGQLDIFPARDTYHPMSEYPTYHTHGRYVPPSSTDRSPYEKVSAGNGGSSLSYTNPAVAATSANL

B1: huBG219P-Bz0 (antibody, IgG1, V domains shown)
VH: EVQLLESGGGLVQPGGSLRLSCAASGFTFNDYIMSWVRQAPGKGLEWVATVSSGGDNTYYPDSVKGRFTISRDNSKNTLYLQMNSLRAEDTAVYYCTRYGGLGAMDYWGQGTLVTVSS
VL: DIQMTQSPSSLSASVGERVTITCRASGNIHNYLTWYQQKPGKSPKLLVYNAKTLADGVPSRFSGSGSGPDYTLTISSLQPEDFATYYCQHFWSVPYTFGQGTKLEIK
notes: Humanized
- EC50 [1]: 20.9 nM

B2: HuVH-HMFG1-AF (antibody, IgG1, V domains shown)
VH: QVQLVQSGAEVKKPGASVKVSCKASGYTFSAYWIEWVRQAPGKGLEWVGEILPGSNNSRYNEKFKGRVTVTRDTSTNTAYMELSSLRSEDTAVYYCARSYDFAWFAYWGQGTLVTVSS
VL: DIQMTQSPSSLSASVGDRVTITCKSSQSLLYSSNQKIYLAWYQQKPGKAPKLLIYWASTRESGVPSRFSGSGSGTDFTFTISSLQPEDIATYYCQQYYRYPRTFGQGTKVEIK
modifications: afucosylated Fc glycan (-AF)
- Cell lysis activity Emax, T-47D/nanoluc in human whole blood [2]: 3.59%

B3: Gatipotuzumab-AF (antibody, IgG1, V domains shown)
VH: EVQLVESGGGLVQPGGSMRLSCVASGFPFSNYWMNWVRQAPGKGLEWVGEIRLKSNNYTTHYAESVKGRFTISRDDSKNSLYLQMNSLKTEDTAVYYCTRHYYFDYWGQGTLVTVSS
VL: DIVMTQSPLSNPVTPGEPASISCRSSKSLLHSNGITYFFWYLQKPGQSPQLLIYQMSNLASGVPDRFSGSGSGTDFTLRISRVEAEDVGVYYCAQNLELPPTFGQGTKVEIK
modifications: afucosylated Fc glycan (-AF)
- Cell lysis activity EC50, T-47D/nanoluc in human whole blood [2]: 2.46 nM
- Cell lysis activity Emax, T-47D/nanoluc in human whole blood [2]: 10.2%

B4: Clivatuzumab-AF (antibody, IgG1, V domains shown)
VH: QVQLQQSGAEVKKPGASVKVSCEASGYTFPSYVLHWVKQAPGQGLEWIGYINPYNDGTQYNEKFKGKATLTRDTSINTAYMELSRLRSDDTAVYYCARGFGGSYGFAYWGQGTLVTVSS
VL: DIQLTQSPSSLSASVGDRVTMTCSASSSVSSSYLYWYQQKPGKAPKLWIYSTSNLASGVPARFSGSGSGTDFTLTISSLQPEDSASYFCHQWNRYPYTFGGGTRLEIK
modifications: afucosylated Fc glycan (-AF)
- Cell lysis activity Emax, T-47D/nanoluc in human whole blood [2]: 2.31%

B5: MUC1 3D1-hFc-AF (antibody, IgG1, V domains shown)
VH: EVQLVQSGAEVKKPGESLKISCKGSGYAFSNFWMNWVRQMPGKGLEWMGQIYPGDGDTNYNGKFKGQVTISADKSISTAYLQWSSLKASDTAMYYCARSYYRSAWFAYWGQGTLVTVSL
VL: EIVLTQSPDFQSVTPKEKVTITCRASQSIGTSIHWYQQKPDQSPKLLIKYASESISGVPSRFSGSGSGTDFTLTINSLEAEDAATYYCQQSNNWPLTFGQGTKVEIK
modifications: afucosylated Fc glycan (-AF)
- Cell lysis activity EC50, T-47D/nanoluc in human whole blood [2]: 8.85 nM
- Cell lysis activity Emax, T-47D/nanoluc in human whole blood [2]: 10.6%
